Earlier results in PMC7395068, “The evolution of strategies to minimise the risk of human drug-induced liver injury (DILI) in drug discovery and development” (Archives of Toxicology, 2020).
Where two headings read alike, the source gives them in different places.

Conditions: cited from earlier work
[1] = LTKB DILIrank category, ref Chen 2016
[2] = binary human DILI assignment, ref Chen 2016
[3] = binary DILI call, ref Chen 2016
[4] = binary in vivo human DILI call, ref Chen 2016
[5] = human DILI, LTKB DILIrank category, ref Chen 2016

| Compound | DILI severity category [1] | DILI +VE (5-8), DILI -VE (-4) (in vivo) | DILI severity category (in vivo) | also measured |
| --- | --- | --- | --- | --- |
| NCCc1ccc(O)cc1 [tyramine] | vNo-DILI-Concern | – | – | DILI +VE (5-8), DILI -VE (-4) [2]: -VE |
| CC(C)[C@H](N)C(=O)OCCOCn1cnc2c(=O)[nH]c(N)nc21 [valaciclovir] | vLess-DILI-Concern | – | – | DILI +VE (5-8), DILI -VE (-4) [2]: +VE |
| Cc1onc(-c2ccccc2)c1-c1ccc(S(N)(=O)=O)cc1 [valdecoxib] | vLess-DILI-Concern | – | – | DILI +VE (5-8), DILI -VE (-4) [2]: +VE |
| CC(C)[C@H](N)C(=O)OCC(CO)OCn1cnc2c(=O)nc(N)[nH]c21 (stereo partly drawn) [valganciclovir] | Ambiguous DILI-concern | – | – | DILI +VE (5-8), DILI -VE (-4) [2]: -VE |
| c1cnc2cc3c(cc2n1)[C@@H]1CNC[C@H]3C1 [varenicline] | vLess-DILI-Concern | – | – | DILI +VE (5-8), DILI -VE (-4) [2]: +VE |
| CC(=O)O[C@H]1C[C@@H]2CC[C@@H]3[C@H](CC[C@@]4(C)[C@H]3C[C@H]([N+]3(C)CCCCC3)[C@@H]4OC(C)=O)[C@@]2(C)C[C@@H]1N1CCCCC1 [vecuronium] | vNo-DILI-Concern | – | – | DILI +VE (5-8), DILI -VE (-4) [2]: -VE |
| C=CC(N)CCC(=O)O (stereo not drawn) [vigabatrin] | Ambiguous DILI-concern | – | – | DILI +VE (5-8), DILI -VE (-4) [2]: -VE |
| CC[C@]1(O)C[C@H]2CN(CCc3c([nH]c4ccccc34)[C@@](C(=O)OC)(c3cc4c(cc3OC)N(C=O)[C@H]3[C@@](O)(C(=O)OC)[C@H](OC(C)=O)[C@]5(CC)C=CCN6CC[C@]43[C@@H]65)C2)C1 [vincristine] | vLess-DILI-Concern | – | – | DILI +VE (5-8), DILI -VE (-4) [2]: +VE |
| CCC1=C[C@@H]2CN(C1)Cc1c([nH]c3ccccc13)[C@@](C(=O)OC)(c1cc3c(cc1OC)N(C)[C@H]1[C@@](O)(C(=O)OC)[C@H](OC(C)=O)[C@]4(CC)C=CCN5CC[C@]31[C@@H]54)C2 [vinorelbine] | Ambiguous DILI-concern | – | – | DILI +VE (5-8), DILI -VE (-4) [2]: -VE |
| CC1=C(/C=C/C(C)=C/C=C/C(C)=C/CO)C(C)(C)CCC1 [vitamin a] | vLess-DILI-Concern | – | – | DILI +VE (5-8), DILI -VE (-4) [2]: +VE |
| O=C1O[C@H]([C@@H](O)CO)C(O)=C1O [vitamin c] | vNo-DILI-Concern | – | – | DILI +VE (5-8), DILI -VE (-4) [2]: -VE |
| O=C(CCCCCCC(=O)Nc1ccccc1)NO [vorinostat] | vNo-DILI-Concern | – | – | DILI +VE (5-8), DILI -VE (-4) [2]: -VE |
| CCOC(Nc1ccc(C(=O)O)cc1)C(=O)c1ccc(-c2ccccc2)cc1 (stereo not drawn) [xenazoic acid] | vMost-DILI-Concern | – | – | DILI +VE (5-8), DILI -VE (-4) [2]: +VE |
| O=C1Cc2cc(CCN3CCN(c4nsc5ccccc45)CC3)c(Cl)cc2N1 [ziprasidone] | vLess-DILI-Concern | – | – | DILI +VE (5-8), DILI -VE (-4) [2]: +VE |
| O=P(O)(O)C(O)(Cn1ccnc1)P(=O)(O)O [zoledronate] | vLess-DILI-Concern | – | – | DILI +VE (5-8), DILI -VE (-4) [2]: +VE |
| CN(C)CCc1c[nH]c2ccc(C[C@H]3COC(=O)N3)cc12 [zolmitriptan] | Ambiguous DILI-concern | – | – | DILI +VE (5-8), DILI -VE (-4) [2]: -VE |
| Argipressin | vNo-DILI-Concern | – | – | DILI +VE (5-8), DILI -VE (-4) [3]: -VE |
| Sodium polystyrene sulfonate | – | -VE | vNo-DILI-Concern | – |
| abatacept | – | +VE | vLess-DILI-Concern | – |

| Compound | DILI severity category [1] | DILI +VE (5-8), DILI -VE (-4) (in vivo) | DILI severity category (in vivo) | also measured |
| --- | --- | --- | --- | --- |
| abciximab | – | -VE | vNo-DILI-Concern | – |
| adalimumab | – | +VE | vLess-DILI-Concern | – |
| agalsidase beta | – | -VE | vNo-DILI-Concern | – |
| aldesleukin | – | -VE | Ambiguous DILI-concern | – |
| alemtuzumab | – | -VE | vNo-DILI-Concern | – |
| alglucosidase alfa | – | -VE | vNo-DILI-Concern | – |
| alteplase | – | -VE | vNo-DILI-Concern | – |
| anakinra | – | +VE | vLess-DILI-Concern | – |
| aprotinin | Ambiguous DILI-concern | – | – | DILI +VE (5-8), DILI -VE (-4) [3]: -VE |
| asparaginase | – | +VE | vMost-DILI-Concern | – |
| basiliximab | – | -VE | vNo-DILI-Concern | – |
| bevacizumab | – | -VE | vNo-DILI-Concern | – |
| bivalirudin | vNo-DILI-Concern | – | – | DILI +VE (5-8), DILI -VE (-4) [3]: -VE |
| bleomycin | Ambiguous DILI-concern | – | – | DILI +VE (5-8), DILI -VE (-4) [3]: -VE |
| botulinum toxin type a | – | -VE | vNo-DILI-Concern | – |
| canakinumab | – | +VE | vLess-DILI-Concern | – |
| certolizumab pegol | – | -VE | Ambiguous DILI-concern | – |
| cholestyramine | – | -VE | Ambiguous DILI-concern | – |
| colestipol | – | -VE | Ambiguous DILI-concern | – |

| Compound | DILI severity category [1] | DILI +VE (5-8), DILI -VE (-4) (in vivo) | DILI severity category (in vivo) | also measured |
| --- | --- | --- | --- | --- |
| colistimethate | – | -VE | vNo-DILI-Concern | – |
| corticotropin (SYSMEHFRWGKPVGKKRRPVKVYPNGAEDESAEAFPLEF; Corticotropin; UniProt P01189 138-176, looked up) | – | – | – | DILI +VE (5-8), DILI -VE (-4) [4]: -VE; DILI severity category [5]: vNo-DILI-Concern |
| dalteparin sodium | – | +VE | vLess-DILI-Concern | – |
| denileukin diftitox | – | – | – | DILI +VE (5-8), DILI -VE (-4) [4]: -VE; DILI severity category [5]: Ambiguous DILI-concern |
| ecallantide | – | -VE | vNo-DILI-Concern | – |
| enoxaparin | – | +VE | vLess-DILI-Concern | – |
| epoetin alfa | – | -VE | vNo-DILI-Concern | – |
| erythropoietin | – | -VE | vNo-DILI-Concern | – |
| etanercept | – | +VE | vLess-DILI-Concern | – |
| exenatide | – | – | – | DILI +VE (5-8), DILI -VE (-4) [4]: -VE; DILI severity category [5]: vNo-DILI-Concern |
| ferumoxides | – | -VE | vNo-DILI-Concern | – |
| ferumoxytol | – | -VE | vNo-DILI-Concern | – |
| filgrastim | – | -VE | Ambiguous DILI-concern | – |
| galsulfase | – | -VE | vNo-DILI-Concern | – |
| gemtuzumab ozogamicin | – | – | – | DILI +VE (5-8), DILI -VE (-4) [4]: +VE; DILI severity category [5]: vMost-DILI-Concern |
| glatiramer acetate | – | – | – | DILI +VE (5-8), DILI -VE (-4) [4]: -VE; DILI severity category [5]: Ambiguous DILI-concern |
| golimumab | – | -VE | Ambiguous DILI-concern | – |
| heparin sodium | – | +VE | vLess-DILI-Concern | – |
| hyaluronidase | – | -VE | vNo-DILI-Concern | – |
